Measurements: patent publication US20110165156A1

What was measured:
Assay in all cases: cell-based or functional assay
[1] = target: CSF-1R of cynomolgous monocytes (cynomolgous)
[2] = target: human mutant CSF-1R L301S Y969F, on cells (human) (UniProt P07333)
[3] = target: human wildtype CSF-1R (wt CSF-1R), full-length, on cells (human) (UniProt P07333)

| % inhibition at 20 µg/ml, mutant CSF-1R cells [2] [%] | Substance | % inhibition (of survival) = (100% - % survival) [1] [%] | % survival (cynomolgous monocytes, 5 µg/ml antibody) [1] [%] | Mutant CSF-1R IC30 (cell viability, 3D culture, CellTiterGlo) [2] [µg/mL] | Mutant CSF-1R IC50 (cell viability, 3D culture, CellTiterGlo) [2] [µg/mL] | wtCSF-1R IC30 (cell viability, 3D culture, CellTiterGlo) [3] [µg/mL] | wtCSF-1R IC50 (cell viability, 3D culture, CellTiterGlo) [3] [µg/mL] |
| --- | --- | --- | --- | --- | --- | --- | --- |
|  | Anti CSF-1R SC 2-4A5 (Santa Cruz Biotechnology, US) (antibody) | 69 | 31 | 2.56 | 10 | 16.6 | 10 |
| 0 | goat polyclonal anti-CSF-1R antibody ab10676 (abcam) |  |  | > 20 |  | 14.2 |  |
